{"source": "paper doi:10.1101/2020.12.04.411884", "about": "(bioRxiv, 2020)", "target": "proteasome αΔ12-subunit (Thermoplasma acidophilum 20S proteasome α-subunit, first 12 residues removed) (Thermoplasma acidophilum, UniProt P25156 13-233)", "sequence (P25156 13-233, stated change not applied)": "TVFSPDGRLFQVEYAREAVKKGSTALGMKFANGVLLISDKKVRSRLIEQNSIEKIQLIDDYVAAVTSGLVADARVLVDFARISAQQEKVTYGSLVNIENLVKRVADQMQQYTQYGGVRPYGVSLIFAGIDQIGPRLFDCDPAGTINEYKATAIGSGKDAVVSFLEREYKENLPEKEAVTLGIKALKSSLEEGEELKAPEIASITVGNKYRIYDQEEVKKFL", "assay": "[…]"}
{"binder": "proteasome β-subunit (Thermoplasma acidophilum 20S proteasome) (natural protein) TTTVGITLKDAVIMATERRVTMENFIMHKNGKKLFQIDTYTGMTIAGLVGDAQVLVRYMKAELELYRLQRRVNMPIEAVATLLSNMLNQVKYMPYMVQLLVGGIDTAPHVFSIDAAGGSVEDIYASTGSGSPFVYGVLESQYSEKMTVDEGVDLVIRAISAAKQRDSASGGMIDVAVITRKDGYVQLPTDQIESRIRKLGLIL", "values": [{"measurement": "binding result", "value": "binds"}]}
